In US20160032013:

How the values were obtained:
[1] = target: Recombinant human pro-MSP 689C (C672A, R689C, His tag), uncleaved single chain
[2] = target: Recombinant human pro-MSP 689R (C672A, His tag), uncleaved single chain
Chain of Recombinant human pro-MSP 689R (C672A, His tag), uncleaved single chain (chain, as listed by the source C672A): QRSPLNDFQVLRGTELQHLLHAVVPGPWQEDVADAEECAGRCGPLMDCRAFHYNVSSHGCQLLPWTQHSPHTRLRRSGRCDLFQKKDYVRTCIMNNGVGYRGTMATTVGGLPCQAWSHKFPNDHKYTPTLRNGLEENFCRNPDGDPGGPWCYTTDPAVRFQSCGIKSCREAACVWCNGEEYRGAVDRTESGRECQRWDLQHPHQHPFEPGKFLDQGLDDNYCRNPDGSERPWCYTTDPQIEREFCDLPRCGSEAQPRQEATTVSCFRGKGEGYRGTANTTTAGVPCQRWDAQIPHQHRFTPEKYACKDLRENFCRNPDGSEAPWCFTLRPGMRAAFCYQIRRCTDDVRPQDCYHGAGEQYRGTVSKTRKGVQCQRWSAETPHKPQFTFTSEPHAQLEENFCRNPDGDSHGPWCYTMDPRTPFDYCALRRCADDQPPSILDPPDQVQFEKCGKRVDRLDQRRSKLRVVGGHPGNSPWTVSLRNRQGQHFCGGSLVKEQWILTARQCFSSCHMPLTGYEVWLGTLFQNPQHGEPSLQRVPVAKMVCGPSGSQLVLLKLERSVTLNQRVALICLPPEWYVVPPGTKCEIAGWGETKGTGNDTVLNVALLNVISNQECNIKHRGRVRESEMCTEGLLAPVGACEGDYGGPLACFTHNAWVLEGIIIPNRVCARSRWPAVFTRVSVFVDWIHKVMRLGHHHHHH

Chain of Recombinant human pro-MSP 689C (C672A, R689C, His tag), uncleaved single chain (chain, as listed by the source C672A R689C): as the sequence (chain, as listed by the source C672A) above, with R671C counted along it

B1: sHepsin (extracellular domain of human recombinant hepsin with C-terminal His-tag) (protein)
chain: RSDQEPLYPVQVSSADARLMVFDKTEGTWRLLCSSRSNARVAGLSCEEMGFLRALTHSELDVRTAGANGTSGFFCVDEGRLPHTQRLLEVISVCDCPRGRFLAAICQDCGRRKLPVDDDDKIVGGRDTSLGRWPWQVSLRYDGAHLCGGSLLSGDWVLTAAHCFPERNRVLSRWRVFAGAVAQASPHGLQLGVQAVVYHGGYLPFRDPNSEENSNDIALVHLSSPLPLTEYIQPVCLPAAGQALVDGKICTVTGWGNTQYYGQQAGVLQEARVPIISNDVCNGADFYGNQIKPKMFCAGYPEGGIDACQGDSGGPFVCEDSISRTPRWRLCGIVSWGTGCALAQKPGVYTKVSDFREWIFQAIKTHSEASGMVTQLHHHHHHHH
**Q.** For B1, which “proteolytic cleavage of pro-MSP by hepsin, SDS-PAGE under reducing conditions, 1 h at 37 C” value [1] is on record?
**A.** No obvious difference was observed in the concentration of hepsin required to completely cleave these variants over a 1-hour period

**Q.** What about the “proteolytic cleavage of pro-MSP by hepsin, SDS-PAGE under reducing conditions, 1 h at 37 C” value [2] of the same protein?
**A.** No obvious difference was observed in the concentration of hepsin required to completely cleave these variants over a 1-hour period
